Results as given in patent US20210277138A1 (BLACK BELT THERAPEUTICS, published 2021).

B1: aCD38-b-329 (antibody, human IgG1, V domains shown)
VH: QLQLQESGPGLVKPSETLSLTCTVSGGSISSSDYYWGWIRQPPGKGLEWIGSIYYSGSTYYNPSLKSRVTISVDTSKNQFSLKLSSVTAADTAVYYCARGQYSSGWYAYPFDMWGQGTMVTVSS
VL: EIVLTQSPGTLSLSPGERATLSCRASQSVRSSYLAWYQQKPGQAPRLLIYGASSRATGIPDRFSGSGSGTDFTLTISRLEPEDFAVYYCQQDGAVFTFGGGTKVEIK
B2: aCD38-b-329-m6 (antibody, IgG1, V domains shown)
VH: QLQLQESGPGLVKPSETLSLTCTVSGGSISSSDYYWGWIRQPPGKGLEWIGSIYYSGSTYYNPSLKSRVTISVDTSKNQFSLKLSSVTAADTAVYYCARGQYSSGWYAYPFDMWGQGTMVTVSS
VL: EIVLTQSPGTLSLSPGERATLSCRASQSVRSSYLAWYQQKPGQAPRLLIYGASSRATGIPDRFSGSGSGTDFTLTISRLEPEDFAVYYCQQDEAVFTFGGGTKVEIK
B3: aCD38-b-329-m7 (antibody, IgG1, V domains shown)
VH: QLQLQESGPGLVKPSETLSLTCTVSGGSISSSDYYWGWIRQPPGKGLEWIGSIYYSGSTYYNPSLKSRVTISVDTSKNQFSLKLSSVTAADTAVYYCARGQYSSGWYAYPFDMWGQGTMVTVSS
VL: EIVLTQSPGTLSLSPGERATLSCRASQSVRSSYLAWYQQKPGQAPRLLIYGASSRATGIPDRFSGSGSGTDFTLTISRLEPEDFAVYYCQQDSAVFTFGGGTKVEIK

Tests used:
[1] = target: T1, human CD38 expressed on cells (Daudi cells, human PBMC / T cells) (human, UniProt P28907 1-300); assay: cell-based or functional assay
T1 sequence: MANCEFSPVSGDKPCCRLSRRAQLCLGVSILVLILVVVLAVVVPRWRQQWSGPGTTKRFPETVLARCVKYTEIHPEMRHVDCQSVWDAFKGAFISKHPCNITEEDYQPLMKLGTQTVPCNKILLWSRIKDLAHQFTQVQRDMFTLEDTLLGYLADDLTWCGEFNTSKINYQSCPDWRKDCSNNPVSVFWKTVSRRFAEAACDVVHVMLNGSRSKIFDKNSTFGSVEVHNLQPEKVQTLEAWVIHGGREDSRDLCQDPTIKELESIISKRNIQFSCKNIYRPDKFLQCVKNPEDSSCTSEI

[2] = target: T1, human CD38 expressed on cells (Daudi …); assay: cell-based or functional assay; remark: listed apart in the source
[3] = target: T1, human CD38 expressed on cells (Daudi …); assay: flow cytometry on human PBMC, gated on CD4-positive cells, fluorescent secondary antibody [lower panel (gated on CD4-positive cells]
[4] = target: T1, human CD38 expressed on cells (Daudi …); assay: flow cytometry on human PBMC, gated on CD8-positive cells, fluorescent secondary antibody [upper panel (gated on CD8-positive cells]

| Binder | ADCC target lysis EC50 [1] [ng/mL] | ADCC target lysis Max. % lysis [1] [%] | ADCC EC50 ug/ml, target Daudi cells, experiment 1 [2] [µg/mL] | ADCC EC50 ug/ml, target Daudi cells, experiment 2 [2] [µg/mL] | EC50 (read off the curve) [3] [nM] | EC50 (read off the curve) [4] [nM] |
| --- | --- | --- | --- | --- | --- | --- |
| B1 | 6.2 | 49 | 0.011 | 0.0062 | ~0.07 | ~0.07 |
| B2 | 2.4 | 47 |  |  |  |  |
| B3 | 3.5 | 43 |  |  |  |  |
